Assay results reported in PMC8465315, “Molecular Umbrella as a Nanocarrier for Antifungals” (Molecules, 2021).

Key:
Candida spp. = assay: Antifungal in vitro activity, summary statements over the Candida strains tested; assay type: cell-based; conditions: RPMI-1640 medium
Protocol: The antifungal in vitro activity of conjugates 24a–d and 35 was determined by the serial two-fold dilution method, using the 96-well microtiter plates, in two growth media, RPMI-1640 and YNB-AS, against seven yeast species from the Candida genus. The MIC50 and MIC90 values, i.e., concentrations at which cell growth was inhibited in 50% and 90%, respectively, were measured and compared to those of the intact cispentacin. The concentration values presented in Table 1 and Table 2 are expressed in mM units to allow the comparison of the compounds’ effectiveness at the molecular level. For data expressed in μg mL^−1 units, such comparison is not possible, since the molecular masses of conjugates (≈1755–2114 D range) are 14–16-fold higher than that of cispentacin (128.3 D).
Susceptibility testing was performed in two growth media: (a) RPMI-1640 w/o sodium bicarbonate, with L-glutamine + 2% glucose + 3.45% MOPS, pH adjusted to 7.0; (b) YNB-AS—Yeast Nitrogen Base w/o amino acids (contains ammonium sulfate 5 g L^−1) + 2% glucose. The in vitro growth inhibitory activity of antifungals was quantified by determination of MIC50 and MIC90 values by the serial two-fold dilution method, using the 96-well microtiter plates. Serial dilutions of cispentacin and its conjugates were prepared in the 4–0.015 mM range.
Conditions of the RPMI-1640-based assay were the same as outlined in the CLSI recommendations except for the end-point readout that was done by spectrophotometric determination of cell density at 660 nm. Turbidity in individual wells was measured with a microplate reader (Victor^3; Perkin Elmer). The 96-well microtiter plates were also used for the determination of in vitro growth inhibitory activity in YNB-AS medium. Individual wells were inoculated with 5 × 10^3 Candida cells mL^−1 from the overnight culture in YPD medium. The plates were incubated at 37 °C for 24 h, and then, turbidity was measured with a microplate reader at 660 nm, as described above for the RPMI-1640-based assay.
Values of MIC50 and MIC90 were read from the graphs of A660 vs. drug concentration and corresponded to the interpolated values of drug concentration at which A660 was 50% or 10% of that measured for the drug-free control.

pig liver esterase = assay: HPLC-MS analysis of conjugate cleavage, model system with pig liver esterase; assay type: in vitro ADME; conditions: pig liver esterase 5 mg mL^−1; conjugate 150 µM; 30 °C; 0, 30, 120 min
Protocol: (§1) Conjugates 24a–d, containing the TML system, were tested for susceptibility to enzymatic cleavage in the model system with pig liver esterase and in cell-free extract prepared from C. albicans cells. Conjugate 35 containing the o-dithiobenzylcarbamoyl linker was tested in the model system with glutathione and in C. albicans cell-free extract.
(§2) Analysis of cleavage of the conjugates was performed in two experimental systems: (A) model system, in the presence of pig liver esterase or glutathione, reduced; (B) in C. albicans cell-free extract.
Mixtures containing a given conjugate at the initial concentration of 150 µM and pig liver esterase, 5 mg mL^−1 or 10 mM glutathione, reduced, in a total volume of 200 μL were incubated at 30 °C. Samples of 50 μL were collected at zero time, after 30 min, and after 120 min and subjected to HPLC-MS analysis.
(§3) The HPLC-MS system consisted of a liquid chromatograph, a degasser, a binary pomp, an auto-sampler, and a column oven, which was combined with an MS detector with an electrospray source (AJS ESI) and quadrupole analyzer (1260 Infinity II and 6470 Triple Quad LC/MS, Agilent Technologies, Waldbronn, Germany). The ChemStation software was used to control the LC-MS system and for data processing.
(§4) Chromatographic separations were performed on an Eclipse XDB-C18 column (150 mm × 4.6 mm, 5 μm). For the separation, a gradient of mobile phase A (H2O + 0.01% HCOOH) and mobile phase B (100% methanol) was used. The gradient profile was set as follows: 0 min—95% effluent A, 8 min—70% effluent A, 11 min—50% effluent A, 12 min—95% effluent A, 17 min—95% effluent A. The flow rate was 1 mL min^−1, the column temperature was 25 °C, and the injection volume was 20 μL.
(§5) The electrospray source operated in a negative mode. The data were collected in a MS scanning mode (MS2 SCAN) with the range 150–700 (m/z).

[1] = system: C. albicans cell-free extract; assay type: in vitro ADME, Candida albicans; conditions: conjugate 150 µM, 30 °C, 0, 30, 120 min
Protocol: as §1
C. albicans cells were harvested from the culture in YPD medium in the logarithmic phase of growth and washed with PBS, pH 7.4. Then, cells were suspended in a minimal amount of PBS to an optical density OD660 ≈ 1.5. A sample of 1.5 mL of the cell suspension was put into the Lysing Matrix D, 2 mL tubes containing 1.4 mm ceramic spheres (MP Biomedicals). The tubes were vortexed 5 times for 2 min intervals, with 2 min breaks for cooling in the ice/water bath. Finally, the mixtures were centrifuged (10,000× g, 4 °C, 20 min), and the supernatant was pushed through the syringe filter, 0.22 μm pore size, to remove unbroken cells. The thus-obtained cell-free extract was kept at 4 °C and used no later than 5 h after preparation.
as §2
A given conjugate was dissolved in 4 mL of C. albicans cell-free extract to the initial concentration of 150 µM. Mixtures were incubated at 30 °C. Samples of 1 mL were collected at zero time, after 30 min, and after 120 min. The collected samples were immediately de-proteinized by centrifugation (4 °C, 5000× g, 10 min) in Amicon® Ultra-4 Centrifugal Filter Units, 3 kDa cutoff limit. Samples of 50 μL were collected from the filtrates and subjected to HPLC-MS analysis.
as §3, §4, §5

| Structure (SMILES) | antifungal activity (Candida spp.) | cleavage / release of cispentacin (HPLC-MS) (pig liver esterase) | cleavage / release of cispentacin or its derivative (HPLC-MS) [1] |
| --- | --- | --- | --- |
| Cc1cc(C)c(C(C)(C)CC(=O)N[C@H]2CCC[C@H]2C(=O)O)c(OC(=O)CCC(=O)N(CCCCNC(=O)CC[C@@H](C)[C@H]2CC[C@H]3[C@@H]4CC[C@@H]5C[C@H](OS(=O)(=O)O)CC[C@]5(C)[C@H]4C[C@H](OS(=O)(=O)O)[C@]23C)CCCNC(=O)CC[C@@H](C)[C@H]2CC[C@H]3[C@@H]4CC[C@@H]5C[C@H](OS(=O)(=O)O)CC[C@]5(C)[C@H]4C[C@H](OS(=O)(=O)O)[C@]23C)c1 [24a] | devoid of antifungal activity | resistant to enzymatic cleavage | Neither cispentacin nor the m/z 145.1/145.2 compound was found |
| Cc1cc(C)c(C(C)(C)CC(=O)N[C@H]2CCC[C@H]2C(=O)O)c(OC(=O)CCC(=O)N(CCCCNC(=O)CC[C@@H](C)[C@H]2CC[C@H]3[C@@H]4[C@H](OS(=O)(=O)O)C[C@@H]5C[C@H](OS(=O)(=O)O)CC[C@]5(C)[C@H]4C[C@H](OS(=O)(=O)O)[C@]23C)CCCNC(=O)CC[C@@H](C)[C@H]2CC[C@H]3[C@@H]4[C@H](OS(=O)(=O)O)C[C@@H]5C[C@H](OS(=O)(=O)O)CC[C@]5(C)[C@H]4C[C@H](OS(=O)(=O)O)[C@]23C)c1 [24b] | devoid of antifungal activity | resistant to enzymatic cleavage | Neither cispentacin nor the m/z 145.1/145.2 compound was found |
